# According to the supplement of paper PMC9732359:
# ± gives the uncertainty stated by the source.
# Assay: protein stability index of a GFP-peptide fusion (yeast GPS) (PSI 1-4); higher = more stable; sorted into four equal gates, so the index is relative within each strain
# Summary of the method: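 Mid-log yeast cultures in leucine-free medium, carrying a pooled plasmid library, were sorted into four equal gates by their GFP/Cherry fluorescence ratio. Each plasmid expressed Cherry along with GFP fused upstream of a tiled 17-residue yeast protein peptide. Plasmids recovered from each gate were PCR-amplified and Illumina-sequenced, with reads assigned to strains by barcodes. The protein stability index was obtained by summing each gate's read frequency weighted by its gate number.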
Sequence,protein stability index (doa10∆),protein stability index (pdr5∆),protein stability index (san1∆),protein stability index (ubr1∆)
ATGFGAHMANPLLRKVV [PRE4],3.29 ± 0.14,3.02 ± 0.13,1.58 ± 0.17,3.34 ± 0.18
QDDIDEMVENSSENNQI [SRP68],3.35 ± 0.1,3.25 ± 0.11,2.97 ± 0.14,3.35 ± 0.088
WDYLQLTVAMYINSDSV [RPO31],1.32 ± 0.071,1.34 ± 0.086,1.64 ± 0.25,1.58 ± 0.071
PGWDFETEEIDPELLRS [RPL5],3.34 ± 0.13,3.19 ± 0.081,3.11 ± 0.057,2.77 ± 0.17
SFIINFISNLPNVSDKY [NUT1],2.28 ± 0.08,1.91 ± 0.07,2.06 ± 0.15,1.95 ± 0.057
AKAKAVTSKVRNAEFKV [YMR153W/NUP53],1.38 ± 0.15,1.67 ± 0.13,,1.3 ± 0.13
KPAEKNNNETSKPAFSF [YJL041W/NSP1],1.65 ± 0.15,1.98 ± 0.06,2.24 ± 0.16,1.64 ± 0.11
EGNVPQTLAPVPYETFI [RPL21A],3.06 ± 0.066,2.74 ± 0.056,3.08 ± 0.052,2.78 ± 0.056
EDEENSDVLLFQLPTTC [RGR1],2.63 ± 0.044,2.27 ± 0.035,2.63 ± 0.041,2.35 ± 0.024
PQKNLLLKGPASTVAKT [YOR098C/NUP1],2.73 ± 0.057,2.94 ± 0.041,2.68 ± 0.054,2.83 ± 0.055
VKKQKSARGIETRPAQV [FAS2],2.77 ± 0.1,3 ± 0.094,3.1 ± 0.083,3.09 ± 0.082
SNNDEDDKDCTIKISTN [RGR1],2.94 ± 0.063,3.13 ± 0.062,2.89 ± 0.054,3 ± 0.054
LPLQAQQQLYGGNNNNN [SWI1],3.05 ± 0.064,2.92 ± 0.07,2.68 ± 0.068,2.56 ± 0.045
HMMKRWGYQMVWAPTQK [POP1],2.15 ± 0.054,2.4 ± 0.051,2.59 ± 0.059,2.56 ± 0.054
RVRHEDVETVKREIQEA [RPC53],,3 ± 0.17,,
FNPYGDNGGTILGIAGE [PRE7],3.37 ± 0.1,3.24 ± 0.11,3.24 ± 0.16,3.28 ± 0.064
TSINHKIYRVGKGDDEA [RPL3],3.44 ± 0.071,3.61 ± 0.1,3.67 ± 0.044,3.28 ± 0.11
PGRIDRKILFENPDLST [RPT2],,3.52 ± 0.28,3.35 ± 0.14,3.37 ± 0.056
LTKKEKKEANLFPEQQT [RPL6B],3.08 ± 0.073,3.21 ± 0.072,3.25 ± 0.06,3.15 ± 0.049
KEPPRDRKKDKNVKHSG [RPL12A],3.29 ± 0.09,3.12 ± 0.084,3.22 ± 0.067,3.17 ± 0.061

Sequence,protein stability index (doa10∆),protein stability index (pdr5∆),protein stability index (san1∆),protein stability index (ubr1∆)
FGSRVMIAKEVKTSPDA [FAS1],3.37 ± 0.12,2.76 ± 0.26,2.81 ± 0.27,3.49 ± 0.2
LNDEGEPIKVNVRVGQA [RPN1],3.13 ± 0.09,3.03 ± 0.062,2.85 ± 0.065,3.2 ± 0.063
IVHSSDGHLQFLNDVIP [DLS1],2.99 ± 0.082,2.75 ± 0.077,2.6 ± 0.16,2.51 ± 0.088
SFSFSIPSKNTPDASKP [YLR335W/NUP2],2.42 ± 0.04,2.45 ± 0.042,2.28 ± 0.045,2.5 ± 0.037
PKIETNVYVGMTDMQIQ [ISW2],2.96 ± 0.091,2.99 ± 0.091,3.04 ± 0.069,3.29 ± 0.11
MLAAQDVAAKCKEVGIT [RPS14A],2.38 ± 0.057,2.38 ± 0.061,2.07 ± 0.068,2.04 ± 0.041
TQQQPGAPGANARMPGM [SRP54],3.1 ± 0.12,2.89 ± 0.096,2.89 ± 0.25,2.7 ± 0.084
QLLGDVMTYKGEVLGIT [RPO31],3.28 ± 0.11,3.43 ± 0.069,3.24 ± 0.14,3.33 ± 0.075
LFDEFGNLIGVDPFDSD [SNU114],3.12 ± 0.078,3.04 ± 0.069,2.87 ± 0.069,3.17 ± 0.058
ESDAPPKSTAPIFSFGK [YOR098C/NUP1],2.72 ± 0.044,2.58 ± 0.044,2.71 ± 0.042,2.76 ± 0.038
AANEGTAVSFVSAAEDE [PRP28],2.96 ± 0.24,3.46 ± 0.23,3.01 ± 0.19,
EDEAALAKLVSTIDANF [RPL8A],2.91 ± 0.065,3.02 ± 0.068,2.66 ± 0.062,2.85 ± 0.05
APDSEYLCFILSTRAGG [SNF2],1.97 ± 0.055,1.97 ± 0.058,2.01 ± 0.063,1.93 ± 0.041
LGSDSSDGHNSEKKDTD [SRB4],1.68 ± 0.11,2.02 ± 0.2,1.59 ± 0.27,
KTSEKSENHTESDAPPK [YOR098C/NUP1],2.52 ± 0.13,2.75 ± 0.13,2.53 ± 0.15,2.28 ± 0.21
STGGKAPRKQLASKAAR [HHT1],2.35 ± 0.23,3.35 ± 0.21,3.03 ± 0.1,3.25 ± 0.21
GSHLSETEFPPFREFLQ [ECM29],3.12 ± 0.063,3.11 ± 0.071,3.09 ± 0.041,2.87 ± 0.058
KEKESKKDSKPAFSFGI [YLR335W/NUP2],2.96 ± 0.077,3.01 ± 0.068,3.19 ± 0.058,3.23 ± 0.059
LFEVNPSQTLFSISYKP [SRP21],2.57 ± 0.071,2.84 ± 0.077,2.28 ± 0.091,2.64 ± 0.045
TNVIAFAFWNLLVKFIK [YLR018C/POM34],1.42 ± 0.092,1.39 ± 0.084,1.29 ± 0.16,1.48 ± 0.042
